Where no end group is shown, it is not given here.
How the values were obtained:
[1] = target: T1, PSMA Fab (006 PSMA Fab) (biotinylated (site not stated)); experiment: phage ELISA on captured PSMA Fab, wells pre-incubated with PSMA antigen as competitor
T1 construct: also called Anti-PSMA Fab

[2] = target: T1, PSMA Fab (006 PSMA Fab); experiment: phage ELISA, clonal phage on biotinylated PSMA Fab captured on neutravidin plate, anti-M13 HRP detection;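 note: crude clonal phage supernatants added to wells preincubated with PSMA antigen in blocking buffer or with blocking buffer only, giving a competition and a no-competitor control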
Method: (§1) Clonal phage were harvested as crude supernatants and screened via standard ELISAs. […] Prior to the addition of clonal phage. wells were incubated with blocking buffer and PSMA antigen or blocking buffer alone. Without washing or aspirating, clonal phage supernatants were then added to the wells and incubated for a short time. Wells were then washed followed by detection of bound phage using a horse radish conjugated anti-M13 antibody.

[3] = target: Anti-PSMA Fab (006 PSMA Fab); experiment: clonal phage ELISA on biotinylated PSMA Fab captured on neutravidin; PSMA antigen as competitor; anti-M13-HRP detection
Method: as §1

[4] = target: Anti-PSMA Fab (006 PSMA Fab); experiment: clonal phage ELISA on biotinylated PSMA Fab captured on neutravidin; bound phage detected with anti-M13-HRP; no PSMA antigen
Method: as §1

[5] = target: T2, Anti-PSMA Fab (SEQ ID NOs: 19, 20); experiment: phage binding ELISA; plate-captured PSMA Fab pre-incubated with PSMA antigen as competitor, anti-M13 HRP detection
T2 construct: Biotinylated and captured on neutravidin coated plates in the phage ELISA; also called 006 PSMA Fab
Method: as §1

[6] = target: T2, Anti-PSMA Fab (SEQ ID NOs: 19, 20); experiment: phage binding ELISA; clonal phage on plate-captured biotinylated PSMA Fab, anti-M13 HRP detection
Method: as §1

Binder | phage binding ELISA signal (Anti-PSMA Fab, wells pre-incubated with PSMA antigen) [3] | Phage binding ELISA signal, Anti-PSMA Fab [4] | also measured
ASNWCIPTWMCEGS [Phage-2335] | – | – | phage binding ELISA signal (Anti-PSMA Fab pre-incubated with PSMA antigen) [1]: 0.0671; Phage binding ELISA signal, Anti-PSMA Fab [2]: 1.44
EVKWCTPSWMCSGL [Phage-2330] | – | – | phage binding ELISA signal (Anti-PSMA Fab pre-incubated with PSMA antigen) [1]: 0.06; Phage binding ELISA signal, Anti-PSMA Fab [2]: 1.45
QNTWCIPPWMCEVF [Phage-2306] | 0.0806 | 1.48 | –
FEHWCTPEWMCLGM [Phage-2331] | – | – | phage binding ELISA signal (Anti-PSMA Fab pre-incubated with PSMA antigen) [1]: 0.0623; Phage binding ELISA signal, Anti-PSMA Fab [2]: 1.45
WENWCTPEWMCNGF (cysteine pairing not given here; also: displayed on bacteriophage by fusion to pIII) [Phage-2298] | 0.0767 | 1.49 | –
MDNWCTPPWMCHGF [Phage-2299] | 0.0898 | 1.49 | –
EAKWCTPPWMCMSM [Phage-2305] | 0.0593 | 1.48 | –
PEKWCIPDWMCTVY [Phage-2311] | 0.0815 | 1.48 | –
TVKWCIPSWMCQQS [Phage-2333] | – | – | phage binding ELISA signal (Anti-PSMA Fab pre-incubated with PSMA antigen) [1]: 0.102; Phage binding ELISA signal, Anti-PSMA Fab [2]: 1.44
IHMLCSPPWMCVGL (tested as crude clonal phage supernatant) [Phage-2294] | – | – | Anti-PSMA Fab signal in the presence of PSMA [5]: 0.0564; Anti-PSMA Fab (SEQ ID NOs: 19, 20) signal [6]: 1.5
PEKWCIPPWMCTNF (cysteine pairing not given here; also: displayed on bacteriophage by fusion to pIII) [Phage-2329] | – | – | phage binding ELISA signal (Anti-PSMA Fab pre-incubated with PSMA antigen) [1]: 0.065; Phage binding ELISA signal, Anti-PSMA Fab [2]: 1.45
IEKWCIPLWMCEMQ [Phage-2309] | 0.0726 | 1.48 | –
VEKWCIPPWMCVNS (tested as crude clonal phage supernatant) [Phage-2293] | – | – | Anti-PSMA Fab signal in the presence of PSMA [5]: 0.0666; Anti-PSMA Fab (SEQ ID NOs: 19, 20) signal [6]: 1.5
SMKWCTPAWMCERL [Phage-2301] | 0.115 | 1.49 | –
LTKWCIPEWMCAVE (cysteine pairing not given here; also: displayed on bacteriophage by fusion to pIII) [Phage-2303] | 0.102 | 1.48 | –
MEIWCKPAWMCEST [Phage-2310] | 0.0714 | 1.48 | –
EFIRCLPPWMCAGF (cysteine pairing not given here; also: displayed on bacteriophage by fusion to pIII) [Phage-2334] | – | – | phage binding ELISA signal (Anti-PSMA Fab pre-incubated with PSMA antigen) [1]: 0.0734; Phage binding ELISA signal, Anti-PSMA Fab [2]: 1.44
VQNWCIPAWMCEGK [Phage-2304] | 0.0686 | 1.48 | –
FANWCTPSWMCNFT [Phage-2302] | 0.152 | 1.48 | –
EPKWCTPAWMCSIV [Phage-2336] | – | – | phage binding ELISA signal (Anti-PSMA Fab pre-incubated with PSMA antigen) [1]: 0.0668; Phage binding ELISA signal, Anti-PSMA Fab [2]: 1.44
NSNWCIPSWMCADI (cysteine pairing not given here; also: displayed on bacteriophage by fusion to pIII, tested as crude clonal phage supernatant) [Phage-2292] | – | – | Anti-PSMA Fab signal in the presence of PSMA [5]: 0.0741; Anti-PSMA Fab (SEQ ID NOs: 19, 20) signal [6]: 1.5
DVMWCIPPWMCEHR (tested as crude clonal phage supernatant) [Phage-2295] | – | – | Anti-PSMA Fab signal in the presence of PSMA [5]: 0.106; Anti-PSMA Fab (SEQ ID NOs: 19, 20) signal [6]: 1.5
THKWCIPVWMCEHQ (tested as crude clonal phage supernatant) [Phage-2297] | – | – | Anti-PSMA Fab signal in the presence of PSMA [5]: 0.0929; Anti-PSMA Fab (SEQ ID NOs: 19, 20) signal [6]: 1.5
EFKMCIPQWMCQHQ [Phage-2312] | 0.0622 | 1.47 | –
EWKWCTPPWMCQYE [Phage-2308] | 0.0874 | 1.48 | –
YDRLCIPMWMCSSV [Phage-2307] | 0.0715 | 1.48 | –
WVQWCIPPWMCEPS [Phage-2300] | 0.14 | 1.49 | –
VVNWCVPEWMCSGF [Phage-2332] | – | – | phage binding ELISA signal (Anti-PSMA Fab pre-incubated with PSMA antigen) [1]: 0.0772; Phage binding ELISA signal, Anti-PSMA Fab [2]: 1.45
NVKWCTPPWMCFLD (tested as crude clonal phage supernatant) [Phage-2296] | – | – | Anti-PSMA Fab signal in the presence of PSMA [5]: 0.0656; Anti-PSMA Fab (SEQ ID NOs: 19, 20) signal [6]: 1.5

From patent US20260242478A1 (published 2026)
